# Results as given in the supplement of paper PMC9112550, “Optimization of the antimicrobial peptide Bac7 by deep mutational scanning” (BMC Biology, 2022).
# Tested on: Escherichia coli TOP10
# Assay: shrunken log2 fold change of peptide-encoding DNA abundance (4.5 h post-induction vs induction); higher = less antimicrobial activity (less host growth inhibition)
# Settings: time post-induction: 4.5 h; library: site-saturation at positions 5, 18, 19, 20
# 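Also: peptides expressed intracellularly from a pBAD plasmid library in pooled LB shake-flask culture, induced with 0.3% L-arabinose, DNA abundance read by NGS, three biological replicates, DESeq2 with apeglm shrinkage.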
row,Sequence,shrunken log2 fold change
1,RRIRDRPPRLPRPRPRPPQWPRP,0.568
2,RRIRERPPRLPRPRPRPLNRPRP,0.0599
3,RRIRNRPPRLPRPRPRPMHRPRP,-0.0926
4,RRIRSRPPRLPRPRPRPNSHPRP,-0.402
5,RRIRPRPPRLPRPRPRPNIRPRP,-0.743
6,RRIRERPPRLPRPRPRPNEGPRP,-0.0857
7,RRIRQRPPRLPRPRPRPIQSPRP,0.0147
8,RRIRYRPPRLPRPRPRPPSQPRP,0.0859
9,RRIRERPPRLPRPRPRPDQCPRP,-0.308
10,RRIRLRPPRLPRPRPRPWRCPRP,0.336
11,RRIRERPPRLPRPRPRPWPWPRP,-0.233
12,RRIRMRPPRLPRPRPRPCQQPRP,0.0325
13,RRIRPRPPRLPRPRPRPCMQPRP,-0.358
14,RRIRVRPPRLPRPRPRPECPPRP,0.0319
15,RRIRPRPPRLPRPRPRPSINPRP,-0.756
16,RRIRVRPPRLPRPRPRPYTDPRP,-0.339
17,RRIRKRPPRLPRPRPRPECYPRP,-0.0555
18,RRIRNRPPRLPRPRPRPIDHPRP,-0.169
19,RRIRKRPPRLPRPRPRPDIHPRP,0.167
20,RRIRHRPPRLPRPRPRPHEHPRP,0.103
21,RRIRERPPRLPRPRPRPMWGPRP,-0.016
22,RRIRERPPRLPRPRPRPHFFPRP,-0.154
23,RRIRVRPPRLPRPRPRPSAGPRP,0.295
24,RRIRIRPPRLPRPRPRPCNGPRP,-0.0882
25,RRIRKRPPRLPRPRPRPWYQPRP,0.218

row,Sequence,shrunken log2 fold change
1,RRIRRRPPRLPRPRPRPSEAPRP,-0.0295
2,RRIRHRPPRLPRPRPRPDHMPRP,0.00372
3,RRIRVRPPRLPRPRPRPVVFPRP,0.00477
4,RRIRERPPRLPRPRPRPDYPPRP,0.00237
5,RRIRGRPPRLPRPRPRPIQFPRP,-0.146
6,RRIRWRPPRLPRPRPRPRQVPRP,0.16
7,RRIRCRPPRLPRPRPRPHRMPRP,-0.401
8,RRIRRRPPRLPRPRPRPLPPPRP,0.937
9,RRIRERPPRLPRPRPRPIQNPRP,0.0753
10,RRIRMRPPRLPRPRPRPCIQPRP,-0.214
11,RRIRGRPPRLPRPRPRPDLPPRP,0.921
12,RRIRHRPPRLPRPRPRPQGAPRP,-0.171
13,RRIRMRPPRLPRPRPRPTWKPRP,-0.0427
14,RRIRHRPPRLPRPRPRPMHSPRP,0.0758
15,RRIRCRPPRLPRPRPRPQKEPRP,-0.104
16,RRIRGRPPRLPRPRPRPVMMPRP,0.0154
17,RRIRDRPPRLPRPRPRPPFFPRP,0.174
18,RRIRWRPPRLPRPRPRPSYDPRP,-0.256
19,RRIRCRPPRLPRPRPRPTQAPRP,0.199
20,RRIRLRPPRLPRPRPRPKYWPRP,-0.131
21,RRIRLRPPRLPRPRPRPQTCPRP,-0.28
22,RRIRCRPPRLPRPRPRPWINPRP,0.102
23,RRIRERPPRLPRPRPRPIPSPRP,-0.109
24,RRIRERPPRLPRPRPRPVMHPRP,-0.0979
25,RRIRSRPPRLPRPRPRPRLSPRP,0.00425

row,Sequence,shrunken log2 fold change
1,RRIRIRPPRLPRPRPRPVCNPRP,-0.52
2,RRIRCRPPRLPRPRPRPLMHPRP,-0.264
3,RRIRIRPPRLPRPRPRPSCFPRP,-0.625
4,RRIRRRPPRLPRPRPRPCKLPRP,0.00583
5,RRIRKRPPRLPRPRPRPHLKPRP,0.0906
6,RRIRRRPPRLPRPRPRPTAQPRP,0.244
7,RRIRKRPPRLPRPRPRPFFRPRP,0.0596
8,RRIRARPPRLPRPRPRPAYTPRP,-0.0472
9,RRIRFRPPRLPRPRPRPSKNPRP,-0.519
10,RRIRQRPPRLPRPRPRPRRRPRP,0.255
11,RRIRSRPPRLPRPRPRPPVEPRP,-0.0919
12,RRIRIRPPRLPRPRPRPFPNPRP,-0.939
13,RRIRHRPPRLPRPRPRPIVHPRP,-0.125
14,RRIRIRPPRLPRPRPRPPGAPRP,0.431
15,RRIRSRPPRLPRPRPRPWESPRP,0.0145
16,RRIRSRPPRLPRPRPRPGDCPRP,0.0299
17,RRIRWRPPRLPRPRPRPWSRPRP,-0.132
18,RRIRDRPPRLPRPRPRPNTTPRP,-0.0542
19,RRIRYRPPRLPRPRPRPGKLPRP,-0.0944
20,RRIRERPPRLPRPRPRPAFDPRP,0.107
21,RRIRARPPRLPRPRPRPGGMPRP,0.337
22,RRIRTRPPRLPRPRPRPWNFPRP,-0.0511
23,RRIRARPPRLPRPRPRPWVNPRP,-0.246
24,RRIRQRPPRLPRPRPRPCAQPRP,0.308
25,RRIRMRPPRLPRPRPRPRKVPRP,0.767

row,Sequence,shrunken log2 fold change
1,RRIRYRPPRLPRPRPRPDVNPRP,-0.0115
2,RRIRARPPRLPRPRPRPDERPRP,0.423
3,RRIRFRPPRLPRPRPRPVMQPRP,-0.0242
4,RRIRLRPPRLPRPRPRPFCDPRP,-0.366
5,RRIRDRPPRLPRPRPRPGERPRP,0.276
6,RRIRMRPPRLPRPRPRPAPGPRP,2.04
7,RRIRRRPPRLPRPRPRPAITPRP,-0.0525
8,RRIRCRPPRLPRPRPRPNKVPRP,-0.142
9,RRIRVRPPRLPRPRPRPKWWPRP,0.0767
10,RRIRWRPPRLPRPRPRPHMQPRP,-0.0363
11,RRIRERPPRLPRPRPRPPYFPRP,-0.441
12,RRIRSRPPRLPRPRPRPYGAPRP,-0.318
13,RRIRLRPPRLPRPRPRPGFYPRP,-0.102
14,RRIRTRPPRLPRPRPRPSYNPRP,-0.591
15,RRIRWRPPRLPRPRPRPDMCPRP,0.262
16,RRIRERPPRLPRPRPRPQEFPRP,-0.0119
17,RRIRYRPPRLPRPRPRPTSMPRP,-1
18,RRIRERPPRLPRPRPRPDDKPRP,-0.433
19,RRIRRRPPRLPRPRPRPYVYPRP,-0.209
20,RRIRERPPRLPRPRPRPFRHPRP,0.0628
21,RRIRCRPPRLPRPRPRPMVRPRP,0.158
22,RRIRVRPPRLPRPRPRPPNSPRP,0.12
23,RRIRCRPPRLPRPRPRPNSHPRP,-0.556
24,RRIRYRPPRLPRPRPRPVRCPRP,0.0877
25,RRIRERPPRLPRPRPRPIQRPRP,0.146

row,Sequence,shrunken log2 fold change
1,RRIRQRPPRLPRPRPRPHINPRP,-0.921
2,RRIRARPPRLPRPRPRPRATPRP,0.581
3,RRIRDRPPRLPRPRPRPQFGPRP,-0.36
4,RRIRNRPPRLPRPRPRPIHRPRP,0.0891
5,RRIRERPPRLPRPRPRPLWNPRP,-0.298
6,RRIRPRPPRLPRPRPRPHMNPRP,-0.6
7,RRIRDRPPRLPRPRPRPRDPPRP,2.7
8,RRIRQRPPRLPRPRPRPLHHPRP,-0.73
9,RRIRDRPPRLPRPRPRPVLMPRP,-0.134
10,RRIRYRPPRLPRPRPRPWGPPRP,-0.206
11,RRIRRRPPRLPRPRPRPFYPPRP,-0.189
12,RRIRHRPPRLPRPRPRPYCSPRP,-0.337
13,RRIRWRPPRLPRPRPRPDLWPRP,0.234
14,RRIRNRPPRLPRPRPRPLVGPRP,0.0121
15,RRIRSRPPRLPRPRPRPGSKPRP,-0.0053
16,RRIRFRPPRLPRPRPRPKNIPRP,-0.485
17,RRIRVRPPRLPRPRPRPCRYPRP,0.0933
18,RRIRNRPPRLPRPRPRPFFLPRP,-0.255
19,RRIRRRPPRLPRPRPRPRMYPRP,-0.152
20,RRIRNRPPRLPRPRPRPRMSPRP,-0.238
21,RRIRMRPPRLPRPRPRPWPLPRP,0.0935
22,RRIRARPPRLPRPRPRPVWEPRP,0.228
23,RRIRERPPRLPRPRPRPRGDPRP,0.0639
24,RRIRRRPPRLPRPRPRPGHKPRP,0.0528
25,RRIRGRPPRLPRPRPRPTGIPRP,-0.0412

row,Sequence,shrunken log2 fold change
1,RRIRVRPPRLPRPRPRPPWIPRP,0.218
2,RRIRTRPPRLPRPRPRPLEQPRP,-0.102
3,RRIRGRPPRLPRPRPRPENKPRP,0.32
4,RRIRGRPPRLPRPRPRPDATPRP,4.21
5,RRIRFRPPRLPRPRPRPKKMPRP,0.153
6,RRIRCRPPRLPRPRPRPNHTPRP,-0.536
7,RRIRCRPPRLPRPRPRPCCKPRP,-0.0101
8,RRIRVRPPRLPRPRPRPIGSPRP,-0.0343
9,RRIRLRPPRLPRPRPRPQTYPRP,-0.371
10,RRIRVRPPRLPRPRPRPTDAPRP,0.0111
11,RRIRKRPPRLPRPRPRPHDEPRP,0.261
12,RRIRRRPPRLPRPRPRPWWPPRP,0.0939
13,RRIRSRPPRLPRPRPRPLEPPRP,-0.132
14,RRIRLRPPRLPRPRPRPRYKPRP,-0.225
15,RRIRVRPPRLPRPRPRPWYGPRP,-0.367
16,RRIRHRPPRLPRPRPRPVYVPRP,-0.158
17,RRIRRRPPRLPRPRPRPMKGPRP,0.144
18,RRIRFRPPRLPRPRPRPQPGPRP,0.152
19,RRIRPRPPRLPRPRPRPAVTPRP,0.0942
20,RRIRDRPPRLPRPRPRPWFWPRP,-0.0329
21,RRIRCRPPRLPRPRPRPKYDPRP,-0.605
22,RRIRYRPPRLPRPRPRPELHPRP,-0.143
23,RRIRQRPPRLPRPRPRPAEAPRP,0.61
24,RRIRQRPPRLPRPRPRPWIIPRP,-0.329
25,RRIRERPPRLPRPRPRPQFPPRP,-0.253
